Molecular target: the molecule itself
Assay: SEC

B1: PCD αβ dimer (protomer of the protocatechuate 3,4-dioxygenase holoenzyme complex) from Pseudomonas putida (complex)
chain 1: MPIELLPETPSQTAGPYVHIGLALEAAGNPTRDQEIWNRLAKPDAPGEHILLLGQVYDGNGHLVRDSFLEVWQADANGEYQDAYNLENAFNSFGRTATTFDAGEWTLHTVKPGVVNNAAGVPMAPHINISLFARGINIHLHTRLYFDDEAQANAKCPVLNLIEQPQRRETLIAKRCEVDGKTAYRFDIRIQGEGETVFFDF
chain 2: MPAQDNSRFVIRDRNWHPKALTPDYKTSIARSPRQALVSIPQSISETTGPNFSHLGFGAHDHDLLLNFNNGGLPIGERIIVAGRVVDQYGKPVPNTLVEMWQANAGGRYRHKNDRYLAPLDPNFGGVGRCLTDSDGYYSFRTIKPGPYPWRNGPNDWRPAHIHFGISGPSIATKLITQLYFEGDPLIPMCPIVKSIANPEAVQQLIAKLDMNNANPMDCLAYRFDIVLRGQRKTHFENC
  binding result: binds
